In US20220211018A1:

Tests used:
[1] = biological target: human thrombomodulin (hTBM) expressed from the B200 vector on porcine aortic endothelial cells (UniProt P07204)
[2] = biological target: collagen agonist; test: cell-based or functional assay; conditions: scale: % more aggregation than the monoallelic vWF edit blood

Chain of UniProt P07204 (P07204 whole entry, looked up): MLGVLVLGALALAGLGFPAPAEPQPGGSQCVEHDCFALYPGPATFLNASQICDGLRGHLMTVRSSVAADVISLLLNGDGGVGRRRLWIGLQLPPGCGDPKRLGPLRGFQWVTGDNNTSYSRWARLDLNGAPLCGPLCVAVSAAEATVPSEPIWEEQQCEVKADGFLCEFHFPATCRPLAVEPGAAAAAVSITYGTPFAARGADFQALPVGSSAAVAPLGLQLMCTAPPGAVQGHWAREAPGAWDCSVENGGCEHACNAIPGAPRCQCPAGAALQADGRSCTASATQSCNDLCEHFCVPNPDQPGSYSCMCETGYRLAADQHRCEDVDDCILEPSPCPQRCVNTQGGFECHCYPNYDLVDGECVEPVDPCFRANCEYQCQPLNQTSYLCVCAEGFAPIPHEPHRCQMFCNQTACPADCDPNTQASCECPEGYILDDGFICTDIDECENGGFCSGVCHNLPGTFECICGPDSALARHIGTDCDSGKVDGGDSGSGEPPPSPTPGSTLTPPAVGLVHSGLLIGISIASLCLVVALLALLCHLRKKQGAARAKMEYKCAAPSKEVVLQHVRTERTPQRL

whole blood platelet aggregation (Chrono-log Whole Blood Aggregometer) after collagen agonist (2 ug/mL) [2] | Substance | activated protein C (APC) assay on pAEC: human thrombin and human Protein C added, Chromogenix S-2366 substrate, absorbance at 405 nm, nM APC/mg protein [1]
 | human thrombin | pAEC from a transgenic pig expressing hTBM and hEPCR from the B200 vector showed a significantly elevated APC levels when compared to GTKO transgenic pig control
50 | porcine von Willebrand factor (unmodified) (from UniProt Q28833 438-2482) | 
